Data from the nanobody polyreactivity screen of Harvey et al. (2022).

experiment: yeast display, Sf9 membrane polyspecificity reagent, FACS + sequencing; frameworks hold sequencing errors
Method in brief: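 Synthetic nanobody libraries on Saccharomyces cerevisiae BJ5465 were galactose-induced for 36–48 hours, stained 1 hour at 4 °C with 10% biotinylated, detergent-solubilized Sf9 membrane reagent and enriched on streptavidin microbeads. FACS then separated cells into low and high (top ~1%) gates by anti-HA (expression) and streptavidin (reagent binding) fluorescence. Genes were colony-PCR amplified, MiSeq 2 × 250 sequenced and CDR-length filtered. A clone's polyreactivity label is that of its gate of origin.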

Sequence	polyreactivity (PSR sort gate)
QVQLVESGGGLVQAGGSLRLSCAASVYGMGWYRQAPGKERELVAAISNGGTTYYADSEKGRFTISRDNAKNTVYLQMNSLKPEDTAVYYCADRSWPGGFIYYYWGQGTQVTVSS	low polyreactivity
QVQLVESGGGLVQAGGSLRLSCAASGRTFYYNAMGWYRQAPGKERELVAAITSRGTTYYADSVKGRFTISRDNAKNTVYLQMNSLKPEDTAVYYCAALALYRAQGNLDYWGQGTQVTVSS	high polyreactivity
QVQLVESGGGLVQAGGSLRLSCAASGLIFPRYGMGWYRQAPGKERELVAAISWSGGSTYYADSVKGRFTISRDNAKNTVYLQMNSLKPEDTAVYYCAVLSNRGVYGSDYWGQGTQVTVSS	high polyreactivity
QFQLVESGGGLVQSGGSLRLSCAASGFIFRSYAMGWYRQAPVKERELVAVISRRGVNTHYADSVKGRFTISRDNAKNTVYLQMNSLKPEDTAVYYCAKGLTAVGDYWGQGTQVTVSS	high polyreactivity
QVQLVESGGGLVQAGGSLRLSCAASGITFWHNTMGWYRQAPGKERELVAAISWTGGRTYYADSVKGRFTISRDNAKNTVYLQMNSLKPEDTAVYYCAADFSWTPSGNYDSWGQGTQVTVSS	low polyreactivity
QVQLVESGGGLVQAGGSLRLSCAASGRIFYPYAMGWYRQAPGKERELVAAIRWSSGNTRYADSVKGRFTISRDNAKNTVYLQMNSLKPEDTAVYYCAAPAVHILQTVSLTPRPLDYWGQGTQVTVSS	high polyreactivity
QVQLVESGGGLVQAGGSLRLSCDASGSNFFYARGWSRQAPGRERELVADITYTGGSKYADSVKGRFTISRDNAKNTVDLQLNILKPEDTAVSYCAKLDGGLFDYWGQGTQVNVSS	low polyreactivity
QVQLVESGGGLVQAGGSLRLSCAGSGFTFIRYAMGWYRQAPGKERELVATITRRTGSTYYADSVKGRFTISRDNAKNTVYLQMYSLKPEDTAVYDCAGELYPSWSHTVFHGYNYWGQGTQVTVSS	high polyreactivity
QVQLVESGGGLVQAGGSLRLSCAASGFTFHDYAMGWYRQAPGKERELVAAITKSGGRTYYADSVKGRFTISRDNAKNTVYLQMNSLKPEDTAVYYCAAASYRSQYDYYYWGQGTQVTVSS	high polyreactivity
QVQLVESGGGLVQAGGSLRLSCAASGFTFRDYAMGWYRQAPGQERELVATITWRVGSTFYADSVKGRFTISRDNAKNTVYLQMNTLKPEDTADDYCAARWSTSYGPFDYWGQGTQVTVSS	low polyreactivity
QVQLVESGGGLVQAGGSLRLSCAASGSTLLIYVMGWYRQAPGKERELVAAISKRSGSTYYADSVKGRFTISRDNAKNTVYLHMNSLKPEDTAVYYCATRPYVRWYDYWGQATQVTVSS	high polyreactivity
QVQLVESGGGLVEAGGSHRLSCAASGSTFNYYAMGWYRQAPGKERELVASISGGGSTSYADSVKGRFTISRDHAKNTVYLQMNSLNPEHTAVYYCAATPIGQHFPLDYWGPGTQVTVSS	low polyreactivity
QVQLVESGGGLVQAGGSLRLSSAASGRNYPKYAMGSYRQAPGKERELVAAISQRGGSTYYADSVKGRFTISRDNAKNTVYLQMNSLKPEDTAVYYCAASYYRQSGEYDYWGQGTLVTVSS	low polyreactivity
QVQLVESGGGLVQAGGSLRLSCAASGSICRYYDMGWYRQAPGKERELVAAISRSGGSTYYADSVKGRFTISRDNAKNTVYLQMNSLKPEDTAVYYCNVDQFRYREDDYWGQGTQVNVSS	high polyreactivity
QDQLVESGGGLVQAGGSLRLSCAASGGTFLTYAMGWYRQAPGKERELVAAISSGGSTYYADSVKGRFTISRDNAKNTVYLQMNSLKPEDTAVYYCNADPYSRFWGPDYGYWGQGTQVTVSS	low polyreactivity
QVQLVESGGGLVQAGGSLRLSCASSGYTFTIYAMGWYRQAPGKERELVAAITGRGGRTNYADSVKGRFTISRDNAKNTVYLQIYRLIPVDTAVYYCNAVTKVVYHGPYGYDYWGQGTQVTVSS	high polyreactivity
QVQLVESGGVLVQAGGSLRLSCAASGLTFGGNAKGWYRPAPGKERELVAAISWSDDTTDYADSVKGRFTISRDNAKNTVYLQMNSLKPEDTAVYYCAARLPFEYVDYWGQGTQVTVSS	low polyreactivity
QVQLVESGGGLVQAGGSLRLSCADSASTLVVNGMGWYRQAPGKERELVASISSDGSTNYADSVKGRFTISRDNAKNTVYLQMNSLKPEDTAFYYCAADEGNGQASLSSNLYDYWGQGTQVTVSS	low polyreactivity
QVQLVESGGGLVQAGGSLRLSCAASGFTFTSYAMGWYRQAPGKERELVAAINRSGGSTTYADSVKGRFTISRDNAKNTVYLQMNSLNPEDTAVYYCAKAFRGHYWGQGTQVTVSS	high polyreactivity
QVQLVESGGCLVQAGGSLRLSCASSGRIFRGYAMGWSRQAPGKERELVAVISYSGTRTYYADSVKGRFTNSRDIAKNTVYLQMNSLKPEETAVYYCNARANGFKDGYWGQGTQVTVSA	high polyreactivity
QVQLVESGGGLVQAGGSLRLSCAASGIIFQQYAMGWYRQAPGKERELVAAITYSGDGTYYADSVKGRFTISRDNAKNTVYLQMNSLKPEDTAVYYCAAYPRDPYKEYDYWGQGTQVTVSS	low polyreactivity
QVQLVESGGGLVQAGGSLRLSCAASGRTFWIYAMGWYRQAPGKEREFVAAISSSGGGTYYADSVKGRFTISRDNAKNTVYLQMNSLKPEDTAVYYCAKDLYFSKGYYWGQGTQVTVSS	low polyreactivity

Sequence	polyreactivity (PSR sort gate)
QVQHVESGGGLVQAGGSLRLICAASGIIFDYNAMGWYRQAPGKERELVATNNDSGGSTSYAYSVKGRFTISRDKAKNTVYLQMNCLKPDDTAVYYCAVLPVYWYWRNYVYLSGYDYWGQGSQVTVSS	low polyreactivity
QVQLVESGGGLVQAGGSLRLSCAASGFTFRKYAMGWYRQAPGKERELVAANTSGGGSTYYADSVKGRFTISRDNAKNTVYLQMNSLKPEDTAVYYCAAKRSGGQGQGYGYWGQGTQVTVSS	high polyreactivity
QVQLVESGGGLVQAGGSLRLSCAASGFILIQYAMGWYRQAPGKERELVAAITWSDTSTNYADSVKGRFTISRDNAKNTVYLQMNSLKPEDTAVYYCAAYPVRYYNQYDYWGQGTQVTVSS	low polyreactivity
QVQLVESGGGLVQAGGSLRLSCAASGLILSSNAMGWYRQAPGKERELVATINRSGASTYYADSVKGRFTISRDNAKNTVYLQMNSLKPEDTAVYYCNTATSRAYRYDYWGQGSQVTVSS	low polyreactivity
QVQLVESGGGLVQAGGSLRLSCAASGGNFGTNDMGWYRQAPGKERELVAAITSDSGSTYYADSVKGRFTISRDNAKNTVYLQMNSLKPEDTAVYYCAAEDGPWFYRYGYWGQGTQVTVSS	low polyreactivity
QVQLVESGGGLVQAGGSLRLSCAASGFIFRAYVMGWYRQAPGKERELVAAISYRGGSTNYADSVKGRFTISRDTAKNTVYLHMNSLKPEDTAVYYCAADQVHKREYDYWGQGTQVTVSS	low polyreactivity
QVQLQESGRRPGSAGVSPRMSCAASGNIFWVAVMCRYRQAPGKERELVASIGFGCTTYYADSVKCRFTISRDNAKITVYLQMLSLKPFDTAVYYCAAPHYDWGELDYWGQGTQVPVSS	low polyreactivity
QVQLVESGGGLVQAGGSLRLSCAASGRIFYPYAMGWYRQAPGKERELVAAISRSGGSTYYADTVKGRFTISRDNAKNTVYLQMNSLKPEDTAVYYCAAEVVYFYSDAHIGYVDYEYWGQGTQVTVSS	low polyreactivity
QVQLVESGGGLVQAGGSLRLSCAASGSTFFGYDMGWYRQAPGKERELVASINSGGSTYFADSEKGRFTISRDNPKNTVYLQMNSLKPEDTAVYYCAARPSYLYPYDRTGEYDYWGQGTQVTVSS	high polyreactivity
QVQLVESGGGLVQAGGSLRLSCAASGNTFYGYAMGWYRQAPGKERELVAAIRGSDGITFYADSVKGRFTISRDNAKNTVYLQMNSLKPEDTAVYYCAKDTYRSPRHDYGYWGQGTQVTVSS	low polyreactivity
QVQLVESGGGLVQAGGILRLSCAASGSNFAPYAMGWYRQSPGKERELVATISASGGTTYYADSVKGRFTISRDTAKNTVYLQMNSLKPEDTAVYYCNADSNWYYLGNYYGLNDYWGQGTQVTVSS	low polyreactivity
QVQLVESGGGLVQAGGSGRLSCAASGRTTRDYAMGWYRQAPGKERELVAAIRWRGVSTYYADSVKGRFTISRDNAKNTVDVQMNSLKPEDTAVYYCAKRESVSTSAGKGAMDSWGQGTQVTVSS	high polyreactivity
QVQLVESGGGLVQAGGSLRLSCAASGSTYYYNAMGWYRQAPGKERELVAAIRTSGGRTYYADSVKGRFTISRDNAKNTVFLQMMSLKPEDTAVYFCADDGTDVHYTYDYWGQGTLVTVSS	low polyreactivity
QVQLVESGGGLVQAGGSLRLSCAASGSNFTVYAMGWYRQAPGKDGELVAAISYNGGCTYYADSVKGRFTISRDNAKNTVYLQMNSLKPEDTAVYYCAARYRDRGRRAEYEYWGQGTQVTVSS	high polyreactivity
QLQLVESGGGLVQAGGSLRLSCAASGYTFYRYAMGWYRQAPGKERELVAAISSAGTTNYADSVKGRFTISRDNAKKTVYFQMNSLKPEDTAVYYCNKRGRNHNSLKYGYWGQGTQVTVSS	high polyreactivity
QVQLVDSGGGLVQAGGSLRLSCAASGRIFGAYTMGWYRQAPGKEREFVADITSGGSTDYADSVKGRFTISRDNAKNTVSLQMNSLKPEDTAVYYCAAGGWVASLYLYDYWGHGTQVTVSS	low polyreactivity
QVQLVESGGGLVQAGGSLRLSCAASGRIFSDYAMGWYRQAPGKERELVATITSGDSTNYADSVKGRFTISRDNAKNTVYLQMNSLKTEDTAVYYCNADRFADYDYWGQGTQVTVSS	low polyreactivity
QVQLVESGGGLVQAGGSLRLSCAASGSIFSGYTMGWYRQAPGKDRELVAGISYRGGSTYYADSVKGRFTISRDNAKNTVYLQMNSLKPEDTAVYYCAALYYRRGSLNYEYWGQGTQVTVSS	high polyreactivity
QVHLVESGGGLVQAGGSLRLSCAASGRIFRTYAMGWYRPAPGKERELVAAISGSGGRTYYADSVKGRFTISRDNAKNTVYLQMNSLIPEDTAVSYCAKYVSIVRYGSTTNYDYWGQGTQVTVSS	high polyreactivity
QVQLVESGGCLVQAGGSLRLSCAASGLTFAENAMGWYREAPGKERELVAAISASGGSTYYADSVKGRFTSSRDNAKNTVYLQMNSLKPEDTAVYYCATRVAFLWPRRDYDYWGQGTQVNVSS	low polyreactivity
QVKLVESGGGLVQAGGSLRLSCAASGRTFIYYAMGWYRQAPGKERELVAGITYSVGSTYYADSVKGRFTISRDNAKNTVYLQMNSLKPEVTAVYYCAAKPVGTYSRPHDYWGQGTQVTVSS	low polyreactivity
